Laboratory results as given in patent US20110142842A1 (published 2011).
Each block holds one binder with its values, some of them ahead of it.

Target: T1, CD20 peptide on HLA-A*02:01 (human)
T1 peptide: SLFLGILSV
Experiment: multimer staining

B1: TCR of SEQ ID NOs 175 and 148 (CDR3 alpha and CDR3 beta) (TCR)
alpha TRAV12-2 J-33 CDR3: AGIMDSNY
beta TRBV4-2 J2-7 CDR3: ASSHGNGYEQY
binding result: recognises

B2: TCR of SEQ ID NOs 177 and 150 (CDR3 alpha and CDR3 beta) (TCR)
alpha TRAV30 J-57 CDR3: GTQGGSEKLV
beta TRBV19 J2-7 CDR3: ATAPGLSYEQY
binding result: recognises

B3: TCR of SEQ ID NOs 180 and 154 (CDR3 alpha and CDR3 beta) (TCR)
alpha TRAV5 J-23 CDR3: AEWGQGGKLI
beta TRBV12-4 J2-7 CDR3: ASSPGLTYEQY
binding result: recognises

Results, then the binder that gave them:

binding result: recognises
B4: TCR of SEQ ID NOs 179 and 153 (CDR3 alpha and CDR3 beta) (TCR)
alpha TRAV38-2/DV8 J-43 CDR3: AYASFDMR
beta TRBV13 J2-3 CDR3: ASSLGSANTQY

binding result: recognises
B5: TCR of SEQ ID NOs 181 and 155 (CDR3 alpha and CDR3 beta) (TCR)
alpha TRAV24 J-28 CDR3: AFMPGAGSYQLT
beta TRBV4-2 J2-7 CDR3: ASSQGLTYEQY
